{"source": "patent US20090220535A1", "about": "(REGENTS OF THE UNIVERSITY OF COLORADO, published 2009)", "binders": {"B1": {"name": "HPV11 GST-L2 (313-455) (other)", "chain": "GARIHYFQDISPVTQAAEEIELHPLVAAENDTFDIYAEPFDPIPDPVQHSVTQSYLTSTPNTLSQSWGNTTVPLSIPSDWFVQSGPDITFPTASMGTPFSPVTPALPTGPVFITGSDFYLHPTWYFARRRRKRIPLFFTDVAA", "notes": "Carboxy-terminal third of HPV11 L2; also called pXA/BN-HPV11L2/313-455; HPV GST=L2(313455); not shown: glutathione-S-transferase (GST) fusion partner from vector pXA/BN (multiple cloning site of pGEX-4T-2); thrombin-cleavab"}, "B2": {"name": "HPV11 GST-L2 (313-455) mutant P413A (other)", "chain": "GARIHYFQDISPVTQAAEEIELHPLVAAENDTFDIYAEPFDPIPDPVQHSVTQSYLTSTPNTLSQSWGNTTVPLSIPSDWFVQSGPDITFPTASMGTPFSAVTPALPTGPVFITGSDFYLHPTWYFARRRRKRIPLFFTDVAA", "notes": "also called pXA/BN-HPV11L2/313-455/P413A; not shown: N-terminal GST fusion partner and its thrombin linker (vector pXA/BN with the pGEX-4T-2 cloning site)"}, "B3": {"name": "HPV11 GST-L2 (313-455) mutant P416A (other)", "chain": "GARIHYFQDISPVTQAAEEIELHPLVAAENDTFDIYAEPFDPIPDPVQHSVTQSYLTSTPNTLSQSWGNTTVPLSIPSDWFVQSGPDITFPTASMGTPFSPVTAALPTGPVFITGSDFYLHPTWYFARRRRKRIPLFFTDVAA", "notes": "also called pXA/BN-HPV11L2/313-455/P416A; not shown: N-terminal GST fusion partner and its thrombin linker (vector pXA/BN with the pGEX-4T-2 cloning site)"}, "B4": {"name": "HPV11 GST-L2 (313-455) mutant P419A (other)", "chain": "GARIHYFQDISPVTQAAEEIELHPLVAAENDTFDIYAEPFDPIPDPVQHSVTQSYLTSTPNTLSQSWGNTTVPLSIPSDWFVQSGPDITFPTASMGTPFSPVTPALATGPVFITGSDFYLHPTWYFARRRRKRIPLFFTDVAA", "notes": "also called pXA/BN-HPV11L2/313-455/P419A; not shown: N-terminal GST fusion partner and its thrombin linker (vector pXA/BN with the pGEX-4T-2 cloning site)"}, "B5": {"name": "HPV11 GST-L2 (313-455) mutant A417E (other)", "chain": "GARIHYFQDISPVTQAAEEIELHPLVAAENDTFDIYAEPFDPIPDPVQHSVTQSYLTSTPNTLSQSWGNTTVPLSIPSDWFVQSGPDITFPTASMGTPFSPVTPELPTGPVFITGSDFYLHPTWYFARRRRKRIPLFFTDVAA", "notes": "also called pXA/BN-HPV11L2/313-455/A417E; not shown: N-terminal GST fusion partner and its thrombin linker (vector pXA/BN with the pGEX-4T-2 cloning site)"}, "B6": {"name": "HPV11 GST-L2 (313-455) mutant L418E (other)", "chain": "GARIHYFQDISPVTQAAEEIELHPLVAAENDTFDIYAEPFDPIPDPVQHSVTQSYLTSTPNTLSQSWGNTTVPLSIPSDWFVQSGPDITFPTASMGTPFSPVTPAEPTGPVFITGSDFYLHPTWYFARRRRKRIPLFFTDVAA", "notes": "not shown: N-terminal GST fusion partner and its thrombin linker (vector pXA/BN with the pGEX-4T-2 cloning site)"}, "B7": {"name": "HPV11 GST-L2 (313-455) double mutant AL417-418EE (other)", "chain": "GARIHYFQDISPVTQAAEEIELHPLVAAENDTFDIYAEPFDPIPDPVQHSVTQSYLTSTPNTLSQSWGNTTVPLSIPSDWFVQSGPDITFPTASMGTPFSPVTPEEPTGPVFITGSDFYLHPTWYFARRRRKRIPLFFTDVAA", "notes": "The text says 'changed to glutamines' but prints EE and speaks of negatively charged residues; also called pXA/BN-HPV11L2/313-455/AL417418EE; not shown: N-terminal GST fusion partner and its thrombin linker (vector pXA/BN with the pGEX-4T-2 cloning site)"}, "B8": {"name": "HPV11 GST-L2 fusion protein, L2 amino acids 313-400 (other)", "chain": "GARIHYFQDISPVTQAAEEIELHPLVAAENDTFDIYAEPFDPIPDPVQHSVTQSYLTSTPNTLSQSWGNTTVPLSIPSDWFVQSGPDI", "notes": "also called pXA/BN-HPV11L2/313-400; not shown: glutathione-S-transferase (GST) fusion partner from vector pXA/BN (multiple cloning site of pGEX-4T-2); thrombin-cleavab"}, "B9": {"name": "HPV11 GST-L2 fusion protein, L2 amino acids 1-156 (other)", "chain": "MKPRARRRKRASATQLYQTCKATGTCPPDVIPKVEHTTIADQILKWGSLGVFFGGLGIGTGAGSGGRAGYIPLGSSPKPAITGGPAARPPVLVEPVAPSDPSIVSLIEESAIINAGAPEVVPPTQGGFTITSSESTTPAILDVSVTNHTTTSVFQN", "notes": "also called pXA/BN-HPV11L2/1-156; not shown: glutathione-S-transferase (GST) fusion partner from vector pXA/BN (multiple cloning site of pGEX-4T-2); thrombin-cleavab"}, "B10": {"name": "HPV11 GST-L2 fusion protein, L2 amino acids 396-439 (other)", "chain": "SGPDITFPTASMGTPFSPVTPALPTGPVFITGSDFYLHPTWYFA", "notes": "also called pXA/BN-HPV11L2/396-439; not shown: glutathione-S-transferase (GST) fusion partner from vector pXA/BN (multiple cloning site of pGEX-4T-2); thrombin-cleavab"}, "B11": {"name": "HPV11 GST-L2 fusion protein, L2 amino acids 346-455 (other)", "chain": "DIYAEPFDPIPDPVQHSVTQSYLTSTPNTLSQSWGNTTVPLSIPSDWFVQSGPDITFPTASMGTPFSPVTPALPTGPVFITGSDFYLHPTWYFARRRRKRIPLFFTDVAA", "notes": "also called pXA/BN-HPV11L2/346-455; not shown: glutathione-S-transferase (GST) fusion partner from vector pXA/BN (multiple cloning site of pGEX-4T-2); thrombin-cleavab"}, "B12": {"name": "HPV11 GST-L2 fusion protein, L2 amino acids 396-455 (other)", "chain": "SGPDITFPTASMGTPFSPVTPALPTGPVFITGSDFYLHPTWYFARRRRKRIPLFFTDVAA", "notes": "also called pXA/BN-HPV11L2/396-455; not shown: glutathione-S-transferase (GST) fusion partner from vector pXA/BN (multiple cloning site of pGEX-4T-2); thrombin-cleavab"}}, "data": [{"molecular_target": "T1, HPV11 L1 protein (human papillomavirus type 11, UniProt P04012 1-501)", "T1 construct": "Full-length HPV11 L1 DNA amplified from pVL11L1", "T1 sequence": "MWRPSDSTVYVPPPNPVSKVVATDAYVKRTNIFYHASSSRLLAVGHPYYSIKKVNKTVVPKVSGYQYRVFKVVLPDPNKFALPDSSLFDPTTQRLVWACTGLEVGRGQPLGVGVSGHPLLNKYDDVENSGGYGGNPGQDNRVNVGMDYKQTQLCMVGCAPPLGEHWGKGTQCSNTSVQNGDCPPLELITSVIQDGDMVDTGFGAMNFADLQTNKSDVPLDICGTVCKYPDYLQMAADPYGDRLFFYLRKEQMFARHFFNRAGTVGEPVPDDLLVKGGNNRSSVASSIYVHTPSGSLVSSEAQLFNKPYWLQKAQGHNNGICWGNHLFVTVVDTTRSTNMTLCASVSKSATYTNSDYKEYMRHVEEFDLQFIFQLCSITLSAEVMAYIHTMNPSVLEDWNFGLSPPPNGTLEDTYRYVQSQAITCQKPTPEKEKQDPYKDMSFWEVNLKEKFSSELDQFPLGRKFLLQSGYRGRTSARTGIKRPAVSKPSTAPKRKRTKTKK", "experiment": "co-expression, glutathione sepharose eluate, densitometry", "values": [{"binder": "B1", "L1:L2": "2 L1:L2 ratio"}, {"binder": "B2", "binding result": "binds"}, {"binder": "B3", "binding result": "binds"}, {"binder": "B4", "binding result": "binds"}, {"binder": "B5", "L1:L2": "1 L1:L2 ratio"}, {"binder": "B6", "binding result": "binds"}, {"binder": "B7", "L1:L2": "0.33 L1:L2 ratio"}]}, {"molecular_target": "T1, HPV11 L1 protein", "experiment": "densitometry after size exclusion chromatography of the complex", "values": [{"binder": "B1", "L1:L2": "~5 L1:L2 ratio"}]}, {"molecular_target": "T1, HPV11 L1 protein", "experiment": "densitometry of partially purified glutathione sepharose eluates", "values": [{"binder": "B1", "L1:L2": "~2 L1:L2 ratio"}]}, {"molecular_target": "T1, HPV11 L1 protein", "experiment": "co-expression in E. coli, glutathione sepharose eluate, SDS-PAGE", "experimental": "The lysates were then treated with 10 units/ml DNAse I in the presence of 5 mM MgCl2 for 30 minutes. […] Lysates were briefly sonicated, then centrifuged at 17,000 G for one hour and the supernatant was passed over a 10 mL bed volume glutathione sepharose column. […] The columns were washed with buffer L (40 mM Tris-Cl, pH 8.0, 0.2 M NaCl, 1 mM EDTA, 2 mM DTT) until no protein was detectable in the wash (approximately 20 bed volumes). To purify L1+GST-L2 complexes, bound proteins were eluted with 10 mM reduced glutathione in buffer L. The eluates were concentrated using Centriplus concentrators (Amicon). To further purify L1+L2 complexes from contaminating bacterial proteins, free L2 and L2 degradation products, eluted proteins were subjected to size exclusion fast pressure chromatography (FPLC) using a HiLoad Superdex 200 gel filtration column (Pharmacia). FPLC fractions containing complexes were pooled and further concentrated as outlined above. Protein complexes were analyzed by SDS-PAGE followed by Coomassie blue staining or immunoblotting. For densitometric analysis on Coomassie-stained gels, images were captured using a fluor-S MultiImager (Bio-Rad) with Quantity One software (BioRad) and quantitated using ImageQuant software (Molecular Dynamics). Using this strategy, L1 will be present upon elution from glutathione-sepharose only if it is bound to GST-L2.\nThe ability of each L2 protein to bind HPV11 L1 was determined by the presence or absence of L1 in the eluate from the glutathione sepharose column as measured by SDS-PAGE.", "values": [{"binder": "B8", "binding result": "no binding"}, {"binder": "B9", "binding result": "no binding"}, {"binder": "B10", "binding result": "binds"}, {"binder": "B11", "binding result": "binds"}, {"binder": "B12", "binding result": "binds"}]}, {"molecular_target": "T1, HPV11 L1 protein", "experiment": "co-expression, glutathione sepharose eluate, densitometry of Coomassie-stained SDS-PAGE", "values": [{"binder": "B1", "L1:L2": "> 1 L1:L2 ratio"}]}]}
